# Test results taken from US20230002460A1 (YUHAN, published 2023).
# Residue numbers refer to the chain shown, from its start. Names may count otherwise.
# B1: long-acting GDF15 fusion protein ΔN2, D93E (Fc fusion)
# chain 1: APALAGGPSVFLFPPKPKDTLMISRTPEVTCVVVDVSHEDPEVKFNWYVDGVEVHNAKTKPREEQYNSTYRVVSVLTVLHQDWLNGKEYKCKVSNKALPAPIEKTISKAKGQPREPQVYTLPPSREEMTKNQVSLWCLVKGFYPSDIAVEWESNGQPENNYKTTPPVLDSDGSFFLYSKLTVDKSRWQQGNVFSCSVMHEALHNHYTQKSLSLSPGKGGGGSGGGGSGGGGSGGGGSGGGGSNGDHCPLGPGRCCRLHTVRASLEDLGWADWVLSPREVQVTMCIGACPSQFRAANMHAQIKTSLHRLKPDTVPAPCCVPASYNPMVLIQKTETGVSLQTYDDLLAKDCHCI
# chain 2: not shown
# B2: long-acting GDF15 fusion protein ΔN2, S97N (Fc fusion)
# chain 1: B1 chain 1 with E333D, S337N
# chain 2: not shown
# B3: long-acting GDF15 fusion protein ΔN2, Q60L (Fc fusion)
# chain 1: B1 chain 1 with Q300L, E333D
# chain 2: not shown
# B4: long-acting GDF15 fusion protein ΔN2, Q60N (Fc fusion)
# chain 1: B1 chain 1 with Q300N, E333D
# chain 2: not shown
# B5: long-acting GDF15 fusion protein ΔN2, T92E (Fc fusion)
# chain 1: B1 chain 1 with T332E, E333D
# chain 2: not shown
# B6: long-acting GDF15 fusion protein ΔN2, S64Q (Fc fusion)
# chain 1: B1 chain 1 with S304Q, E333D
# chain 2: not shown
# B7: long-acting GDF15 fusion protein ΔN2, Y101F (Fc fusion)
# chain 1: B1 chain 1 with E333D, Y341F
# chain 2: not shown
# B8: long-acting GDF15 fusion protein ΔN2, D93L (Fc fusion)
# chain 1: B1 chain 1 with E333L
# chain 2: not shown
# B9: long-acting GDF15 fusion protein ΔN2, S97Q (Fc fusion)
# chain 1: B1 chain 1 with E333D, S337Q
# chain 2: not shown
# B10: long-acting GDF15 fusion protein ΔN2, W32F (Fc fusion)
# chain 1: B1 chain 1 with W272F, E333D
# chain 2: not shown
# B11: long-acting GDF15 fusion protein ΔN2, Y101Q (Fc fusion)
# chain 1: B1 chain 1 with E333D, Y341Q
# chain 2: not shown
# B12: long-acting GDF15 fusion protein ΔN2, T92S (Fc fusion)
# chain 1: B1 chain 1 with T332S, E333D
# chain 2: not shown
# B13: long-acting GDF15 fusion protein ΔN2, D93N (Fc fusion)
# chain 1: B1 chain 1 with E333N
# chain 2: not shown
# B14: long-acting GDF15 fusion protein (dimer) FM5 + Fc_hole (ΔN2, S64K) (Fc fusion)
# chain 1: B1 chain 1 with S304K, E333D
# chain 2: not shown
# B15: long-acting GDF15 fusion protein (dimer) FM11-1 + Fc_hole (ΔN3, G4N, D5S, H6T, S64R; linker GS(G4S)3) (Fc fusion)
# chain 1: APEAAGGPSVFLFPPKPKDTLMISRTPEVTCVVVDVSHEDPEVKFNWYVDGVEVHNAKTKPREEQYASTYRVVSVLTVLHQDWLNGKEYKCKVSNKALPAPIEKTISKAKGQPREPQVYTLPPSREEMTKNQVSLWCLVKGFYPSDIAVEWESNGQPENNYKTTPPVLDSDGSFFLYSKLTVDKSRWQQGNVFSCSVMHEALHNHYTQKSLSLSPGKGSGGGGSGGGGSGGGGSNSTCPLGPGRCCRLHTVRASLEDLGWADWVLSPREVQVTMCIGACPSQFRAANMHAQIKTRLHRLKPDTVPAPCCVPASYNPMVLIQKTDTGVSLQTYDDLLAKDCHCI
# chain 2: APEAAGGPSVFLFPPKPKDTLMISRTPEVTCVVVDVSHEDPEVKFNWYVDGVEVHNAKTKPREEQYASTYRVVSVLTVLHQDWLNGKEYKCKVSNKALPAPIEKTISKAKGQPREPQVYTLPPSREEMTKNQVSLSCAVKGFYPSDIAVEWESNGQPENNYKTTPPVLDSDGSFFLVSKLTVDKSRWQQGNVFSCSVMHEALHNHYTQKSLSLSPGK
# B16: long-acting GDF15 fusion protein (dimer) FM9-3 + Fc_hole (ΔN2, S64R; linker GS(G4S)7) (Fc fusion)
# chain 1: APEAAGGPSVFLFPPKPKDTLMISRTPEVTCVVVDVSHEDPEVKFNWYVDGVEVHNAKTKPREEQYASTYRVVSVLTVLHQDWLNGKEYKCKVSNKALPAPIEKTISKAKGQPREPQVYTLPPSREEMTKNQVSLWCLVKGFYPSDIAVEWESNGQPENNYKTTPPVLDSDGSFFLYSKLTVDKSRWQQGNVFSCSVMHEALHNHYTQKSLSLSPGKGSGGGGSGGGGSGGGGSGGGGSGGGGSGGGGSGGGGSNGDHCPLGPGRCCRLHTVRASLEDLGWADWVLSPREVQVTMCIGACPSQFRAANMHAQIKTRLHRLKPDTVPAPCCVPASYNPMVLIQKTDTGVSLQTYDDLLAKDCHCI
# chain 2: B15 chain 2
# B17: long-acting GDF15 fusion protein (dimer) FM11-5 + Fc_hole (ΔN3, G4N, D5S, H6T, S64R; linker GSGGSS(PT)10) (Fc fusion)
# chain 1: APEAAGGPSVFLFPPKPKDTLMISRTPEVTCVVVDVSHEDPEVKFNWYVDGVEVHNAKTKPREEQYASTYRVVSVLTVLHQDWLNGKEYKCKVSNKALPAPIEKTISKAKGQPREPQVYTLPPSREEMTKNQVSLWCLVKGFYPSDIAVEWESNGQPENNYKTTPPVLDSDGSFFLYSKLTVDKSRWQQGNVFSCSVMHEALHNHYTQKSLSLSPGKGSGGSSPTPTPTPTPTPTPTPTPTPTNSTCPLGPGRCCRLHTVRASLEDLGWADWVLSPREVQVTMCIGACPSQFRAANMHAQIKTRLHRLKPDTVPAPCCVPASYNPMVLIQKTDTGVSLQTYDDLLAKDCHCI
# chain 2: B15 chain 2
# B18: long-acting GDF15 fusion protein (dimer) FM11-6 + Fc_hole (ΔN3, G4N, D5S, H6T, S64R; linker GS(EAAAK)5) (Fc fusion)
# chain 1: APEAAGGPSVFLFPPKPKDTLMISRTPEVTCVVVDVSHEDPEVKFNWYVDGVEVHNAKTKPREEQYASTYRVVSVLTVLHQDWLNGKEYKCKVSNKALPAPIEKTISKAKGQPREPQVYTLPPSREEMTKNQVSLWCLVKGFYPSDIAVEWESNGQPENNYKTTPPVLDSDGSFFLYSKLTVDKSRWQQGNVFSCSVMHEALHNHYTQKSLSLSPGKGSEAAAKEAAAKEAAAKEAAAKEAAAKNSTCPLGPGRCCRLHTVRASLEDLGWADWVLSPREVQVTMCIGACPSQFRAANMHAQIKTRLHRLKPDTVPAPCCVPASYNPMVLIQKTDTGVSLQTYDDLLAKDCHCI
# chain 2: B15 chain 2
# B19: long-acting GDF15 fusion protein (dimer) FM9-1 + Fc_hole (ΔN2, S64R; linker GS(G4S)3) (Fc fusion)
# chain 1: APEAAGGPSVFLFPPKPKDTLMISRTPEVTCVVVDVSHEDPEVKFNWYVDGVEVHNAKTKPREEQYASTYRVVSVLTVLHQDWLNGKEYKCKVSNKALPAPIEKTISKAKGQPREPQVYTLPPSREEMTKNQVSLWCLVKGFYPSDIAVEWESNGQPENNYKTTPPVLDSDGSFFLYSKLTVDKSRWQQGNVFSCSVMHEALHNHYTQKSLSLSPGKGSGGGGSGGGGSGGGGSNGDHCPLGPGRCCRLHTVRASLEDLGWADWVLSPREVQVTMCIGACPSQFRAANMHAQIKTRLHRLKPDTVPAPCCVPASYNPMVLIQKTDTGVSLQTYDDLLAKDCHCI
# chain 2: B15 chain 2
# B20: long-acting GDF15 fusion protein (dimer) FM9-2 + Fc_hole (ΔN2, S64R; linker GS(G4S)5) (Fc fusion)
# chain 1: APEAAGGPSVFLFPPKPKDTLMISRTPEVTCVVVDVSHEDPEVKFNWYVDGVEVHNAKTKPREEQYASTYRVVSVLTVLHQDWLNGKEYKCKVSNKALPAPIEKTISKAKGQPREPQVYTLPPSREEMTKNQVSLWCLVKGFYPSDIAVEWESNGQPENNYKTTPPVLDSDGSFFLYSKLTVDKSRWQQGNVFSCSVMHEALHNHYTQKSLSLSPGKGSGGGGSGGGGSGGGGSGGGGSGGGGSNGDHCPLGPGRCCRLHTVRASLEDLGWADWVLSPREVQVTMCIGACPSQFRAANMHAQIKTRLHRLKPDTVPAPCCVPASYNPMVLIQKTDTGVSLQTYDDLLAKDCHCI
# chain 2: B15 chain 2
# B21: long-acting GDF15 fusion protein (dimer) FM11-3 + Fc_hole (ΔN3, G4N, D5S, H6T, S64R; linker GS(G4S)7) (Fc fusion)
# chain 1: APEAAGGPSVFLFPPKPKDTLMISRTPEVTCVVVDVSHEDPEVKFNWYVDGVEVHNAKTKPREEQYASTYRVVSVLTVLHQDWLNGKEYKCKVSNKALPAPIEKTISKAKGQPREPQVYTLPPSREEMTKNQVSLWCLVKGFYPSDIAVEWESNGQPENNYKTTPPVLDSDGSFFLYSKLTVDKSRWQQGNVFSCSVMHEALHNHYTQKSLSLSPGKGSGGGGSGGGGSGGGGSGGGGSGGGGSGGGGSGGGGSNSTCPLGPGRCCRLHTVRASLEDLGWADWVLSPREVQVTMCIGACPSQFRAANMHAQIKTRLHRLKPDTVPAPCCVPASYNPMVLIQKTDTGVSLQTYDDLLAKDCHCI
# chain 2: B15 chain 2
# B22: long-acting GDF15 fusion protein (dimer) FM11-4 + Fc_hole (ΔN3, G4N, D5S, H6T, S64R; linker GS(EEEA)6) (Fc fusion)
# chain 1: APEAAGGPSVFLFPPKPKDTLMISRTPEVTCVVVDVSHEDPEVKFNWYVDGVEVHNAKTKPREEQYASTYRVVSVLTVLHQDWLNGKEYKCKVSNKALPAPIEKTISKAKGQPREPQVYTLPPSREEMTKNQVSLWCLVKGFYPSDIAVEWESNGQPENNYKTTPPVLDSDGSFFLYSKLTVDKSRWQQGNVFSCSVMHEALHNHYTQKSLSLSPGKGSEEEAEEEAEEEAEEEAEEEAEEEANSTCPLGPGRCCRLHTVRASLEDLGWADWVLSPREVQVTMCIGACPSQFRAANMHAQIKTRLHRLKPDTVPAPCCVPASYNPMVLIQKTDTGVSLQTYDDLLAKDCHCI
# chain 2: B15 chain 2
# B23: long-acting GDF15 fusion protein (dimer) FM11-2 + Fc_hole (ΔN3, G4N, D5S, H6T, S64R; linker GS(G4S)5) (Fc fusion)
# chain 1: APEAAGGPSVFLFPPKPKDTLMISRTPEVTCVVVDVSHEDPEVKFNWYVDGVEVHNAKTKPREEQYASTYRVVSVLTVLHQDWLNGKEYKCKVSNKALPAPIEKTISKAKGQPREPQVYTLPPSREEMTKNQVSLWCLVKGFYPSDIAVEWESNGQPENNYKTTPPVLDSDGSFFLYSKLTVDKSRWQQGNVFSCSVMHEALHNHYTQKSLSLSPGKGSGGGGSGGGGSGGGGSGGGGSGGGGSNSTCPLGPGRCCRLHTVRASLEDLGWADWVLSPREVQVTMCIGACPSQFRAANMHAQIKTRLHRLKPDTVPAPCCVPASYNPMVLIQKTDTGVSLQTYDDLLAKDCHCI
# chain 2: B15 chain 2
# Target: T1, GDF15 receptors GFRAL and RET, overexpressed together on HEK293 cells (UniProt Q6UXV0 19-394; P07949 29-1114, limits assumed)
# T1 sequence (Q6UXV0 19-394 limits assumed, chain 1 of 2): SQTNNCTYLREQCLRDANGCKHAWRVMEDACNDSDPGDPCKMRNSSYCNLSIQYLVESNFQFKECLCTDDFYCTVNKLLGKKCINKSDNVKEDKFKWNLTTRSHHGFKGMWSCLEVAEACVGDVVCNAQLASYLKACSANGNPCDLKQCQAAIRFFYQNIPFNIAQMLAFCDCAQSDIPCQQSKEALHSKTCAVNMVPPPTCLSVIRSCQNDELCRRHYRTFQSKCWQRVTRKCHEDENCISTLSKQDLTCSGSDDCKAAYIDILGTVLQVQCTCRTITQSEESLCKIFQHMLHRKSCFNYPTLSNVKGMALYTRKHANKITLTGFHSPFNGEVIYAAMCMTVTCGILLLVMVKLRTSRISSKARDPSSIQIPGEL
# T1 sequence (P07949 29-1114 limits assumed, chain 2 of 2): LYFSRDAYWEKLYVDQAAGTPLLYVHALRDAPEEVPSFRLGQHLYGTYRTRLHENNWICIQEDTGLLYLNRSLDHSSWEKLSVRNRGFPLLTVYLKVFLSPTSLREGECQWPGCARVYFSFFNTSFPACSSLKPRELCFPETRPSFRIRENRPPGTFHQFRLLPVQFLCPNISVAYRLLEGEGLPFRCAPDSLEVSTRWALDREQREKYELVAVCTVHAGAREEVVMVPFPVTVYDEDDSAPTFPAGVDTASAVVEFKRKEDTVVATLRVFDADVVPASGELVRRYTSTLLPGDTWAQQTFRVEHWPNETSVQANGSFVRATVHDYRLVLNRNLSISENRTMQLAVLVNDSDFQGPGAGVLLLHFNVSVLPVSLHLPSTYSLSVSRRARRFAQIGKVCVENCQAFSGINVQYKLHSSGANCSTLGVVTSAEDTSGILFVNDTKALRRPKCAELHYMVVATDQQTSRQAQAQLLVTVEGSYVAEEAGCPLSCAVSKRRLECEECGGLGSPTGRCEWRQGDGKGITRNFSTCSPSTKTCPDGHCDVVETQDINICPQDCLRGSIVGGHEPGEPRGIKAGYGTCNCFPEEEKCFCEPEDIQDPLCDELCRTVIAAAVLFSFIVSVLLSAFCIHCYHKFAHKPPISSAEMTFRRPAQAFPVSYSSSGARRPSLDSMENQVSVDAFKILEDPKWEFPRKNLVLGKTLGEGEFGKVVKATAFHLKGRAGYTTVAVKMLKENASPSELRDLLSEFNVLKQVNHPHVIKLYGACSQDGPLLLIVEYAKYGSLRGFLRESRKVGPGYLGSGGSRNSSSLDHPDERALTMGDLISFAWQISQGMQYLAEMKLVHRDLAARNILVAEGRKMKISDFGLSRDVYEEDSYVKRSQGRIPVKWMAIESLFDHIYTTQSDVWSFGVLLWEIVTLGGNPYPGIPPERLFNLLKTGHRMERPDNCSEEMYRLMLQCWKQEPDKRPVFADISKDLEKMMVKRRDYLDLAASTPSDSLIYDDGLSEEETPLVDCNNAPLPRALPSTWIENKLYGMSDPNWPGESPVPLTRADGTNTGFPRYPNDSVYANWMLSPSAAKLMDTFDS
# Experiment: cell-based or functional assay
EC50 [nM],Emax (%) [relative to FWT 100%] [%],Binder
6.5,87.6,B1
5.6,100,B2
11.9,96.3,B3
7,43.5,B4
1.1,12.3,B5
7.9,100,B6
31.8,37.5,B7
9,59.1,B8
9.2,118,B9
19.4,51.3,B10
12.9,16.3,B11
14.9,112,B12
22.6,99.6,B13
7.7,147,B14

# Target: T1, GDF15 receptors GFRAL and RET, …
# Experiment: cell-based or functional assay
# Remark: another data set of the same source
EC50 [nM],Emax (%),Binder
9.7,65.6,B15
9.3,95.6,B16
5.1,68.2,B17
6.8,80.3,B18
9,97.6,B19
9.5,111,B20
7.8,81,B21
45.4,105,B22
7.7,79.4,B23
